In US20230399608A1, “PROCESS FOR ESTABLISHING A HUMAN TESTICULAR TISSUE CULTURE SYSTEM” (PATERNA BIOSCIENCES INC., priority 2021, published 2023):

B1: rh HB-EGF: ligand of CD9 (protein, UniProt Q99075 63-148, looked up)
Heparin-binding EGF-like …: DLQEADLDLLRVTLSSKPQALATPNKEEHGKRKKKGKGLGKKRDPCLRKYKDFCIHGECKYVKELRAPSCICHPGYHGERCHGLSL
B2: Artemin (ARTN): ligand of GFRA1/GFRA2/RET/GFRA3 (protein, UniProt Q5T4W7 108-220, looked up)
Artemin: AGGPGSRARAAGARGCRLRSQLVPVRALGLGHRSDELVRFRFCSGSCRRARSPHDLSLASLLGAGALRPPPGSRPVSQPCCRPTRYEAVSFMDVNSTWRTVDRLSATACGCLG
B3: DLK2: ligand of NOTCH1 (protein, UniProt Q6UY11 27-383, looked up)
Protein delta homolog 2: DDCSSHCDLAHGCCAPDGSCRCDPGWEGLHCERCVRMPGCQHGTCHQPWQCICHSGWAGKFCDKDEHICTTQSPCQNGGQCMYDGGGEYHCVCLPGFHGRDCERKAGPCEQAGSPCRNGGQCQDDQGFALNFTCRCLVGFVGARCEVNVDDCLMRPCANGATCLDGINRFSCLCPEGFAGRFCTINLDDCASRPCQRGARCRDRVHDFDCLCPSGYGGKTCELVLPVPDPPTTVDTPLGPTSAVVVPATGPAPHSAGAGLLRISVKEVVRRQEAGLGEPSLVALVVFGALTAALVLATVLLTLRAWRRGVCPPGPCCYPAPHYAPACQDQECQVSMLPAGLPLPRDLPPEPGKTTAL
B4: GDF9: ligand of ACVR2A/BMPR1B/BMPR1A/BMPR2/TGFBR1 (protein, UniProt O60383 320-454, looked up)
Growth/differentiation factor …: GQETVSSELKKPLGPASFNLSEYFRQFLLPQNECELHDFRLSFSQLKWDNWIVAPHRYNPRYCKGDCPRAVGHRYGSPVHTMVQNIIYEKLDSSVPRPSCVPAKYSPLSVLTIEPDGSIAYKEYEDMIATKCTCR
B5: WNT-3A: ligand of RYK/FZD3/FZD7/FZD1/LRP6 (protein, UniProt P56704 19-352, looked up)
Protein Wnt-3a: SYPIWWSLAVGPQYSSLGSQPILCASIPGLVPKQLRFCRNYVEIMPSVAEGIKIGIQECQHQFRGRRWNCTTVHDSLAIFGPVLDKATRESAFVHAIASAGVAFAVTRSCAEGTAAICGCSSRHQGSPGKGWKWGGCSEDIEFGGMVSREFADARENRPDARSAMNRHNNEAGRQAIASHMHLKCKCHGLSGSCEVKTCWWSQPDFRAIGDFLKDKYDSASEMVVEKHRESRGWVETLRPRYTYFKVPTERDLVYYEASPNFCEPNPETGSFGTRDRTCNVSSHGIDGCDLLCCGRGHNARAERRREKCRCVFHWCCYVSCQECTRVYDVHTCK
B6: WNT-1: ligand of RYK/FZD3/FZD7/FZD1/ROR2/LRP6 (protein, UniProt P04628 28-370, looked up)
Proto-oncogene Wnt-1: ANSSGRWWGIVNVASSTNLLTDSKSLQLVLEPSLQLLSRKQRRLIRQNPGILHSVSGGLQSAVRECKWQFRNRRWNCPTAPGPHLFGKIVNRGCRETAFIFAITSAGVTHSVARSCSEGSIESCTCDYRRRGPGGPDWHWGGCSDNIDFGRLFGREFVDSGEKGRDLRFLMNLHNNEAGRTTVFSEMRQECKCHGMSGSCTVRTCWMRLPTLRAVGDVLRDRFDGASRVLYGNRGSNRASRAELLRLEPEDPAHKPPSPHDLVYFEKSPNFCTYSGRLGTAGTAGRACNSSSPALDGCELLCCGRGHRTRTQRVTERCNCTFHWCCHVSCRNCTHTRVLHECL
B7: GDF6/BMP13: ligand of BMPR1B/BMPR1A/BMPR2 (protein, UniProt Q6KF10 336-455, looked up)
Growth/differentiation factor …: TAFASRHGKRHGKKSRLRCSKKPLHVNFKELGWDDWIIAPLEYEAYHCEGVCDFPLRSHLEPTNHAIIQTLMNSMDPGSTPPSCCVPTKLTPISILYIDAGNNVVYKQYEDMVVESCGCR
B8: Neurturin (NRTN): ligand of GFRA1/GFRA2/RET/GFRA3 (protein, UniProt Q99748 96-197, looked up)
Neurturin: ARLGARPCGLRELEVRVSELGLGYASDETVLFRYCAGACEAAARVYDLGLRRLRQRRRLRRERVRAQPCCRPTAYEDEVSFLDAHSRYHTVHELSARECACV
B9: rh Midkine Protein: ligand of GPC2 (protein, UniProt P21741 21-143, looked up)
Midkine: VAKKKDKVKKGGPGSECAEWAWGPCTPSSKDCGVGFREGTCGAQTQRIRCRVPCNWKKEFGADCKYKFENWGACDGGTGTKVRQGTLKKARYNAQCQETIRVTKPCTPKTKAKAKAKKGKGKD
B10: BMP8b: ligand of BMPR1B/BMPR1A/BMPR2 (protein, UniProt P34820 264-402, looked up)
Bone morphogenetic protein 8B: AVRPLRRRQPKKSNELPQANRLPGIFDDVHGSHGRQVCRRHELYVSFQDLGWLDWVIAPQGYSAYYCEGECSFPLDSCMNATNHAILQSLVHLMMPDAVPKACCAPTKLSATSVLYYDSSNNVILRKHRNMVVKACGCH
B11: GDF11/BMP11: ligand of BMPR1B/BMPR1A/BMPR2/ACVR2B/ACVR1B/ACVR2A (protein, UniProt O95390 299-407, looked up)
Growth/differentiation factor …: NLGLDCDEHSSESRCCRYPLTVDFEAFGWDWIIAPKRYKANYCSGQCEYMFMQKYPHTHLVQQANPRGSAGPCCTPTKMSPINMLYFNDKQQIIYGKIPGMVVDRCGCS
B12: CNTN2: ligand of CNTNAP2 (protein, UniProt Q02246 31-1012, looked up)
Contactin-2: SQTTFGPVFEDQPLSVLFPEESTEEQVLLACRARASPPATYRWKMNGTEMKLEPGSRHQLVGGNLVIMNPTKAQDAGVYQCLASNPVGTVVSREAILRFGFLQEFSKEERDPVKAHEGWGVMLPCNPPAHYPGLSYRWLLNEFPNFIPTDGRHFVSQTTGNLYIARTNASDLGNYSCLATSHMDFSTKSVFSKFAQLNLAAEDTRLFAPSIKARFPAETYALVGQQVTLECFAFGNPVPRIKWRKVDGSLSPQWTTAEPTLQIPSVSFEDEGTYECEAENSKGRDTVQGRIIVQAQPEWLKVISDTEADIGSNLRWGCAAAGKPRPTVRWLRNGEPLASQNRVEVLAGDLRFSKLSLEDSGMYQCVAENKHGTIYASAELAVQALAPDFRLNPVRRLIPAARGGEILIPCQPRAAPKAVVLWSKGTEILVNSSRVTVTPDGTLIIRNISRSDEGKYTCFAENFMGKANSTGILSVRDATKITLAPSSADINLGDNLTLQCHASHDPTMDLTFTWTLDDFPIDFDKPGGHYRRTNVKETIGDLTILNAQLRHGGKYTCMAQTVVDSASKEATVLVRGPPGPPGGVVVRDIGDTTIQLSWSRGFDNHSPIAKYTLQARTPPAGKWKQVRTNPANIEGNAETAQVLGLTPWMDYEFRVIASNILGTGEPSGPSSKIRTREAAPSVAPSGLSGGGGAPGELIVNWTPMSREYQNGDGFGYLLSFRRQGSTHWQTARVPGADAQYFVYSNESVRPYTPFEVKIRSYNRRGDGPESLTALVYSAEEEPRVAPTKVWAKGVSSSEMNVTWEPVQQDMNGILLGYEIRYWKAGDKEAAADRVRTAGLDTSARVSGLHPNTKYHVTVRAYNRAGTGPASPSANATTMKPPPRRPPGNISWTFSSSSLSIKWDPVVPFRNESAVTGYKMLYQNDLHLTPTLHLTGKNWIEIPVPEDIGHALVQIRTTGPGGDGIPAEVHIVRNGGTSMMVEN

Test system: testicular germ cell proliferation
Assay: Screen of SSC / differentiating spermatogonia receptor ligands in the iterative culture process
Format: cell-based, human
Conditions: ligand at the concentration listed in Table 5; effective to date at improving germ cell proliferation
Text: A process for identification and selection of receptor ligands capable of improving testicular germ cell proliferation was developed. The process uses expression data obtained by mining scRNA-seq data obtained from testicular tissue (FIG. 27). The process systematically prioritizes candidates for spermatogonia ligands through a series of bioinformatics analyses and filtering. The process comprises identifying and selecting potential ligands based on their receptor expression in State 1 SSCs (active stem cells) and State 2/3 differentiating spermatogonia (differentiated germ cells with strong proliferation ability), or any combination thereof.
More specifically, the approach was based on the single-cell RNA sequencing transcriptome profile of the adult human testis atlas (Guo, J., Grow, E. J., Mlcochova, H., Maher, G. J., Lindskog, C., Nie, X., Guo, Y., Takei, Y., Yun, J., Cai, L., et al. (2018). The adult human testis transcriptional cell atlas. Cell Research 28, 1141. 10.1038/s41422-018-0099-2; the disclosure of all of which is incorporated herein in its entirety), which provides a comprehensive characterization of cell types in the human adult testis. Pseudo-bulk RNA-seq analysis was used, which involves aggregating individual cells into groups to enhance the receptor gene expression signal on SSCs and differentiating spermatogonia. Each individual cell is assigned to its corresponding cell type cluster based and summing the expression values of all cells within each cluster to create pseudo-bulk samples.
The CellTalkDB database was used to identify receptors expressed in SSCs/differentiating spermatogonia. Specifically, the receptors whose expression in SSCs/differentiating spermatogonia ranks within the top 150 were selected, as expression levels below this point are generally low in these cell populations. […] This filtering step helps to focus on receptors that are more specific to the target cell populations. Using the CellTalkDB database, the corresponding ligands for the selected receptors were then identified. The ligand candidates were prioritized based on their expression levels in the testes, and their known functionality.
The identified ligands were then used in the iterative process of the instant disclosure for identifying culture conditions that support testicular germ cell proliferation in vitro to refine the culture conditions.

Molecule | Effective
rh CXCL12: chemokine; ligand of CXCR4 | No
rh LIF: leukemia inhibitory factor; ligand of IL6ST/LIFR | Yes
C[C@]12CC[C@H]3[C@@H](CCC4=CC(=O)CC[C@@]43C)[C@@H]1CC[C@@H]2O [Testosterone, reference compound] | Yes
rh Secretin: ligand of VIPR2 | No
rh beta-NGF: ligand of KIDINS220 | Yes
FGF2: basic fibroblast growth factor | Yes
B1 | Yes
B2 | No
B3 | No
B4 | No
B5 | Yes
B6 | No
B7 | No
B8 | Yes
B9 | Yes
B10 | No
B11 | No
B12 | No
